Experiments:
MUC1*45 = MUC1*45 (UniProt P15941 1110-1255); assay: cell-based or functional assay
T47D = assay: xCELLigence impedance cytotoxicity, T47D; type: cell-based, human; settings: Example 9 (FIGS. 35-36); average over batches for DXd ADCs; read-out: IC50 for killing of breast cancer T47D-wt cells
Experimental: (§1) An xCELLigence RTCA MP Instrument (Agilent) was used to assess real-time killing of target cancer cells). In the xCELLigence system, target cancer cells, which are adherent, are plated onto electrode array 96-well plates. Adherent cells insulate the electrode and increase the impedance. The number of adherent cancer cells is directly proportional to impedance. […] Therefore, increasing impedance reflects the growth of the cancer cells and decreasing impedance reflects the killing of the cancer cells.
(§2) Target Cancer cells (Table 9) were seeded onto a multi-electrode well plate at a density of 5000 cells/well (100 μL of a 50,000 cells/mL stock) and incubated for 24 hr in a 37° C./5% CO2 incubator. ADCs were prepared as a 2× solution in corresponding growth media and 100 μL of each concentration was added to target cells. As a positive control (100% cell killing) cells were treated with either 1% triton or 1 μM Taxol instead of ADC. After 40-120 hours incubation in a 37° C./5% CO2 incubator cell killing was assessed. In this assay, impedance is measured in real-time. When the adherent cancer cells are killed and come off the electrode surface, impedance (insulation) decreases.

NCI-H1975 = assay: xCELLigence impedance cytotoxicity, NCI-H1975; type: cell-based, human; settings: Example 9 (FIGS. 35-36); read-out: IC50 for killing of H1975-wt cells
Experimental: as §1, §2

[1] = system: CFPAC1-wt pancreatic cancer cell line; assay: xCELLigence impedance cytotoxicity, CFPAC1; type: cell-based, human; settings: Example 9 (FIGS. 35-36); read-out: IC50, CFPAC1-wt pancreatic cancer cells
Experimental: as §1, §2
(§3) To directly compare the C2 and 3C2B1 anti-MUC1* antibodies as ADC targeting domains, a panel of MUC1* positive cancer cell lines representing different cancer types were treated with C2-deruxtecan versus 3C2B1-deruxtecan (FIG. 35) or C2-MC-VA-PAB-exatecan versus 3C2B1-MC-VA-PAB-exatecan (FIG. 36). In some cases, the cancer cells were engineered to express high levels of MUC1*45.

[2] = system: H2110-wt lung cancer cell line; assay: xCELLigence impedance cytotoxicity, H2110; type: cell-based, human; settings: Example 9 (FIGS. 35-36); read-out: IC50, lung cancer H2110-wt cells
Experimental: as §1, §2, §3

PSMGFR C-10 peptide = biological target: T1, PSMGFR C-10 peptide; assay: ELISA on PSMGFR C-10 peptide; Table 4 grade
T1 peptide: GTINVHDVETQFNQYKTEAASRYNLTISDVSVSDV

B1: C2-deruxtecan (antibody, mouse IgG1, kappa)
VH: EVQLEESGGGLVKPGGSLKLSCAASGFTFSGYAMSWVRQTPEKRLEWVATISSGGTYIYYPDSVKGRFTISRDNAKNTLYLQMSSLRSEDTAMYYCARLGGDNYYEYFDVWGAGTTVTVSSAKTTPPSVYAKTTPPSVYPLAPGSAAQTNSMVTLGCLVKGYFPEPVTVTWNSGSLSSGVHTFPAVLQSDLYTLSSSVTVPSSTWPSETVTCNVAHPASSTKVDKKIVPRDCGCKPCICTVPEVSSVFIFPPKPKDVLTITLTPKVTCVVVDISKDDPEVQFSWFVDDVEVHTAQTQPREEQFNSTFRSVSELPIMHQDWLNGKEFKCRVNSAAFPAPIEKTISKTKGRPKAPQVYTIPPPKEQMAKDKVSLTCMITDFFPEDITVEWQWNGQPAENYKNTQPIMDTDGSYFVYSKLNVQKSNWEAGNTFTCSVLHEGLHNHHTEKSLSHSPGK
VL: DIVITQSTASLGVSLGQRATISCRASKSVSTSGYSYMHWYQQRPGQPPKLLIYLASNLESGVPARFSGSGSGTDFTLNIHPVEEEDAATYYCQHSRELPFTFGGGTKLEIKRADAAPTVSADAAPTVSIFPPSSEQLTSGGASVVCFLNNFYPKDINVKWKIDGSERQNGVLNSWTDQDSKDSTYSMSSTLTLTKDEYERHNSYTCEATHKTSTSPIVKSFNRNEC
modifications: deruxtecan (MC-GGFG-AM-DXd) on reduced cysteine thiols of the antibody, sites not stated; deruxtecan (MC-GGFG-AM-DXd) on reduced cysteine thiols of the antibody, sites not stated; average DAR 7.7
MUC1*45
  IC50, killing of H1975 lung cancer cells engineered to express MUC1*45 (xCELLigence): 54 nM
  IC50, killing of T47D breast cancer cells engineered to express MUC1*45 (xCELLigence): 2 nM

B2: 3C2B1-MC-VA-PAB-exatecan (antibody, V domains shown)
VH: EVMLVESGGGLVKPGGSLKLSCAASGITFSTYTMSWVRQTPEKRLEWVATISTGGDKTYYSDSVKGRFTISRDNAKNNLYLQMSSLRSEDTALYYCARGTTAMYYYAMDYWGQGTSVTVSS
VL: DIVLTQSPASLAVSLGQRATISCRASKSISTSDYNYIHWYQQKPGQPPKLLIYLASNLESGVPARFSGSGSGTDFTLNIHPVEEEDAATYYCQHSRELPLTFGAGTKLELK
modifications: MC-VA-PAB-exatecan on reduced cysteine thiols of the antibody, sites not stated; MC-VA-PAB-exatecan on reduced cysteine thiols of the antibody, sites not stated; DAR 5.2
MUC1*45
  IC50, killing of H1975 cells engineered to express MUC1*45 (xCELLigence): 141 nM
  IC50, killing of T47D cells engineered to express more MUC1*45 (xCELLigence): 31 nM
T47D
  IC50: 77 nM
NCI-H1975
  IC50: 189 nM
[1]
  IC50: 40 nM
[2]
  IC50: 113 nM

B3: anti-MUC1* antibody 20A10 (antibody, IgG2b, V domains shown)
VH: EVMLVESGGGLVKPGGSLKLSCAASGFTFSTYAMSWIRQTPEKRLEWVASIGRAGSTYYSDSVKGRFTISRDNVRNILYLQMSSLRSEDTAMYYCARGPIYNDYDEFAYWGQGTLVTVSA
VL: NIMMTQSPSSLAVSAGEKVTMSCKSSQSVLYSSNQKNYLAWYQQKPGQSPKLLIYWASTRESGVPDRFTGSGSGTDFTLTISSVQAEDLAVYYCHQYLSSLTFGAGTKLELKA
notes: Humanised form is m25
PSMGFR C-10 peptide
  binding result: no binding

Source: patent publication US20260137799A1, “ANTI-MUC1* ANTIBODY DRUG COMPLEXES AND USES THEREOF” (Minerva Biotechnologies Corporation, priority 2023, published 2026)
